Test results from patent publication US7951356B1, “Tissue factor compositions and kits for coagulation and tumor treatment” (Board of Regents, The University of Texas System, priority 1997, dated 2011).

B1: “standard” tTF: “standard” tTF219 preparation obtained from Dr. Thomas Edgington (The Scripps Research Institute) (protein)
chain: GSGTTNTVAAYNLTWKSTNFKTILEWEPKPVNQVYTVQISTKSGDWKSKCFYTTDTECDLTDEIVKDVKQTYLARVFSYPAGNVESTGSAGEPLYENSPEFTPYLETNLGQPTIQSFEQVGTKVNVTVEDERTLVRRNNTFLSLRDVFGKDLIYTLYYWKSSSSGKKTAKTNTNEFLIDVDKGENYCFSVQAVIPSRTVNRKSTDSPVECMGQEKGEFRE
B2: H6—N′-cys-tTF219: tTF219 with (His)6 and a Cys in front of the N′-terminus; SEQ ID NO:2 (protein)
chain: HHHHHHAMALVPRGSCGTTNTVAAYNLTWKSTNFKTILEWEPKPVNQVYTVQISTKSGDWKSKCFYTTDTECDLTDEIVKDVKQTYLARVFSYPAGNVESTGSAGEPLYENSPEFTPYLETNLGQPTIQSFEQVGTKVNVTVEDERTLVRRNNTFLSLRDVFGKDLIYTLYYWKSSSSGKKTAKTNTNEFLIDVDKGENYCFSVQAVIPSRTVNRKSTDSPVECMGQEKGEFRE
B3: H6-tTF219-cys-C′: tTF219 with (His)6 and a Cys after amino acid 219; SEQ ID NO:3 (protein)
chain: HHHHHHAMALVPRGSGTTNTVAAYNLTWKSTNFKTILEWEPKPVNQVYTVQISTKSGDWKSKCFYTTDTECDLTDEIVKDVKQTYLARVFSYPAGNVESTGSAGEPLYENSPEFTPYLETNLGQPTIQSFEQVGTKVNVTVEDERTLVRRNNTFLSLRDVFGKDLIYTLYYWKSSSSGKKTAKTNTNEFLIDVDKGENYCFSVQAVIPSRTVNRKSTDSPVECMGQEKGEFREC
B4: H6-tTF220-cys-C′: tTF219 mutated to carry Ile-Cys after amino acid 219; SEQ ID NO:6 (protein)
chain: HHHHHHAMALVPRGSGTTNTVAAYNLTWKSTNFKTILEWEPKPVNQVYTVQISTKSGDWKSKCFYTTDTECDLTDEIVKDVKQTYLARVFSYPAGNVESTGSAGEPLYENSPEFTPYLETNLGQPTIQSFEQVGTKVNVTVEDERTLVRRNNTFLSLRDVFGKDLIYTLYYWKSSSSGKKTAKTNTNEFLIDVDKGENYCFSVQAVIPSRTVNRKSTDSPVECMGQEKGEFREIC
B5: tTF220-cys-C′: tTF220-cys-C′, tested beside H6-tTF220-cys-C′ (FIG. 6) (protein)
chain: GSGTTNTVAAYNLTWKSTNFKTILEWEPKPVNQVYTVQISTKSGDWKSKCFYTTDTECDLTDEIVKDVKQTYLARVFSYPAGNVESTGSAGEPLYENSPEFTPYLETNLGQPTIQSFEQVGTKVNVTVEDERTLVRRNNTFLSLRDVFGKDLIYTLYYWKSSSSGKKTAKTNTNEFLIDVDKGENYCFSVQAVIPSRTVNRKSTDSPVECMGQEKGEFREIC
B6: H6-tTF221-cys-C′: tTF219 mutated to carry Ile-Phe-Cys after amino acid 219; SEQ ID NO:7 (protein)
chain: HHHHHHAMALVPRGSGTTNTVAAYNLTWKSTNFKTILEWEPKPVNQVYTVQISTKSGDWKSKCFYTTDTECDLTDEIVKDVKQTYLARVFSYPAGNVESTGSAGEPLYENSPEFTPYLETNLGQPTIQSFEQVGTKVNVTVEDERTLVRRNNTFLSLRDVFGKDLIYTLYYWKSSSSGKKTAKTNTNEFLIDVDKGENYCFSVQAVIPSRTVNRKSTDSPVECMGQEKGEFREIFC
B7: tTF221-cys-C′: tTF221-cys-C′, tested beside H6-tTF221-cys-C′ (FIG. 7) (protein)
chain: GSGTTNTVAAYNLTWKSTNFKTILEWEPKPVNQVYTVQISTKSGDWKSKCFYTTDTECDLTDEIVKDVKQTYLARVFSYPAGNVESTGSAGEPLYENSPEFTPYLETNLGQPTIQSFEQVGTKVNVTVEDERTLVRRNNTFLSLRDVFGKDLIYTLYYWKSSSSGKKTAKTNTNEFLIDVDKGENYCFSVQAVIPSRTVNRKSTDSPVECMGQEKGEFREIFC
B8: H6—N′ cys-tTF219 dimer: chemically conjugated dimer of SEQ ID NO:2 (protein)
chain: B2 chain
modifications: chemically conjugated dimer
B9: H6-tTF221-cys-C′ dimer: chemically conjugated dimer of SEQ ID NO:7 (protein)
chain: B6 chain
modifications: chemically conjugated dimer
B10: IgG-H6—N′-cys-tTF219 (conjugate)
chain: B2 chain
modifications: left off: large carriers
B11: Fab′-H6—N′-cys-tTF219 (conjugate)
chain: B2 chain
modifications: left off: another chain or arm of the molecule; large carriers
B12: tTF219 (W158R): tryptophan at amino acid 158 of tTF219 mutated to an arginine; SEQ ID NO:8 (protein)
chain: SGTTNTVAAYNLTWKSTNFKTILEWEPKPVNQVYTVQISTKSGDWKSKCFYTTDTECDLTDEIVKDVKQTYLARVFSYPAGNVESTGSAGEPLYENSPEFTPYLETNLGQPTIQSFEQVGTKVNVTVEDERTLVRRNNTFLSLRDVFGKDLIYTLYYRKSSSSGKKTAKTNTNEFLIDVDKGENYCFSVQAVIPSRTVNRKSTDSPVECMGQEKGEFRE

Experiments:
[1] = system: citrated mouse plasma; test: In vitro coagulation assay: tTF constructs localized on A20 lymphoma cells via bispecific antibody B21-2/10H10; assay type: cell-based; conditions: for concentration applied to the cells at which plasma coagulated in 50 seconds: A20 cells coated with B21-2/10H10, FIG. 5-8, 15; for coagulation-inducing activity once localized on A20 cells via B21-2/10H10, in words (compared with tTF219): plasma coagulation; for fold less active than tTF219 at inducing coagulation of plasma: localized on A20 cells via B21-2/10H10
Protocol: This assay was used to verify that tTF, various derivatives and mutants thereof, and immunoglobulin-tTF conjugates acquire coagulation inducing activity once localized at a cell surface. A20 lymphoma cells (I-A^d positive) (2×10^6 cells/ml, 50 μl) were incubated for 1 h at room temperature with a bispecific antibody (50 μg/ml, 25 μl) consisting of a Fab′ arm of the B21-2 antibody directed against I-A^d linked to a Fab′ arm of the 10H10 antibody directed against a non-inhibitory epitope on tTF. The cells were washed at room temperature and varying concentrations of tTF, derivatives or mutants thereof, or immunoglobulin-tTF conjugates were added for 1 hour at room temperature. The bispecific antibody captures the tTF or tTF linked to immunoglobulin, bringing it into close approximation to the cell surface, where coagulation can proceed.
The cells were washed again at room temperature, resuspended in 75 μl of PBS and warmed to 37° C. […] The time for the first fibrin strands to form was recorded. Clotting time was plotted against tTF concentration and curves compared with standard curves prepared using standard tTF219 preparations.

[2] = system: factor X; test: Factor Xa production assay (chromogenic substrate S-2765) with constructs localized on A20 cells; assay type: biochemical; conditions: presence of Factors II, VII and IX, B21-2/10H10, FIG. 17
Protocol: The assay measures factor X to Xa conversion rate by means of a chromophore-generating substrate (S-2765) for factor Xa.
A20 cells (2×10^7 cells) were suspended in 10 ml medium containing 0.2% w/v sodium azide. To 2.5 ml cell suspension were added 6.8 μg of B21-2/10H10 “capture” bispecific antibody for 50 minutes at room temperature. The cells were washed and resuspended in 2.5 ml medium containing 0.2% w/v sodium azide. The tTF and immunoglobulin-tTF conjugates dissolved in the same medium were distributed in 100 μl volumes at a range of concentrations into wells of 96-well microtiter plates. To the wells was then added 100 μl of the cell/bispecific antibody suspension. The plates were incubated for 50 minutes at room temperature.
The plates were centrifuged, the supernatants were discarded and the cell pellets were resuspended in 250 μl of Wash Buffer (150 mM NaCl: 50 mM Tris-HCl, pH 8; 0.2% w/v bovine serum albumin). The cells were washed again and cells resuspended in 100 μl of a 12.5-fold dilution of Proplex T (Baxter, Inc.) containing Factors II, VII, IX and X in Dilution Buffer (Wash Buffer supplemented with 12.5 mM calcium chloride). Plates were incubated at 37° C. for 30 minutes. To each well was added Stop Solution (12.5 mM sodium ethylenediaminetetracetic acid (EDTA)) in wash buffer. Plates were centrifuged. […] The optical density of each solution was measured at 409 nm. […]

[3] = Toxicity to mice of tTF mutants and Factor VIIa given separately; assay type: in vivo

Row | Molecule | concentration applied to the cells at which plasma coagulated in 50 seconds [1] | coagulation-inducing activity once localized on A20 cells via B21-2/10H10, in words (compared with tTF219) [1] | other results
1 | B1 | 3 nM |  | 
2 | B2 |  | as active as tTF | 
3 | B3 | 3 nM | as active as tTF | 
4 | B4 | 0.5 nM | as active as tTF219 | 
5 | B5 | 0.5 nM | as active as tTF219 | 
6 | B6 | 0.5 nM | as active as tTF219 | concentration applied to the cells at which plasma coagulated in 50 seconds ([1]; listed as H6-tTF221-cys-C′ monomer): 1 nM
7 | B7 | 0.5 nM | as active as tTF219 | 
8 | B8 |  | as active as tTF219 itself | 
9 | B9 | 4 nM |  | fold less active than tTF219 at inducing coagulation of plasma [1]: 4 fold
10 | B10 | 5 nM |  | fold less active than tTF219 at inducing coagulation of plasma [1]: 5 fold; fold less active than H6—N′-cys-tTF219 at inducing Xa formation [2]: 2 fold
11 | B11 |  |  | activity at inducing Xa formation compared with H6—N′-cys-tTF219 [2]: as active as H6—N′-cys-tTF219 itself
12 | B12 |  | Weak coagulation | coagulation times compared with tTF219 and Factor VIIa at the same concentrations ([1]; addition of Factor VIIa at 1 nM or greater, FIG. 22): only marginally slower coagulation times; toxicity to mice [3]: practically non-toxic
